In patent US20240400618A1 (GRIFOLS DIAGNOSTIC SOLUTIONS, published 2024):
Read-outs that look alike come from different tables or passages of the source.

Experiments:
commercial RBD protein = commercial RBD protein (SARS-CoV-2, UniProt P0DTC2 319-541)
pxENB17-RBD-His [1] = target: T1, pxENB17-RBD-His (SARS-CoV-2, UniProt P0DTC2 319-541)
pxENB9-FLS-CT-His [2] = target: T2, pxENB9-FLS-CT-His (SARS-CoV-2, UniProt P0DTC2 15-1213)
pxENB5-his-TEV-FLS [3] = target: T3, pxENB5-his-TEV-FLS (SARS-CoV-2, UniProt P0DTC2 14-1213)
pxENB8-FLS-TN-His [4] = target: T4, pxENB8-FLS-TN-His (SARS-CoV-2, UniProt P0DTC2 15-1213)
pxENB12-FLS-His [5] = target: T5, pxENB12-FLS-His (SARS-CoV-2, UniProt P0DTC2 15-1213)
pxENB1-His-TEV-FLS-TN [6] = target: T6, pxENB1-His-TEV-FLS-TN (SARS-CoV-2, UniProt P0DTC2 14-1213)
pxENB2-His-TEV-FLS-CT [7] = target: T7, pxENB2-His-TEV-FLS-CT (SARS-CoV-2, UniProt P0DTC2 14-1213)
[8] = target: pxENBEP17_TPA_Nuc(1-182)_Spike (15-1216, GAAS, PP)_10xHis (SARS-CoV-2)
pxEBNCP14-tPa-FLS-CT-His = pxEBNCP14-tPa-FLS-CT-His (SARS-CoV-2, UniProt P0DTC2 16-1213)
pxENB9-FLS-CT-His [9] = target: T2, pxENB9-FLS-CT-His; remark: listed apart in the source
pxENB5-his-TEV-FLS [10] = target: T3, pxENB5-his-TEV-FLS; remark: listed apart in the source
pxENB8-FLS-TN-His [11] = target: T4, pxENB8-FLS-TN-His; remark: listed apart in the source
pxEBNCP2-tPa-His-TEV-S1 = pxEBNCP2-tPa-His-TEV-S1 (SARS-CoV-2, UniProt P0DTC2 14-680)
pxEBNCP3-S1-His = pxEBNCP3-S1-His (SARS-CoV-2, UniProt P0DTC2 15-681)
pxENB12-FLS-His [12] = target: T5, pxENB12-FLS-His; remark: listed apart in the source
pxENB17-RBD-His [13] = target: T1, pxENB17-RBD-His; remark: listed apart in the source
pxEBNCP4-tPa-S1-His = pxEBNCP4-tPa-S1-His (SARS-CoV-2, UniProt P0DTC2 15-681)
pxEBNCP1-His-TEV-S1 = pxEBNCP1-His-TEV-S1 (SARS-CoV-2, UniProt P0DTC2 14-680)
pxENB1-His-TEV-FLS-TN [14] = target: T6, pxENB1-His-TEV-FLS-TN; remark: listed apart in the source
pxEBNCP16-IL2-FLS-CT-His = pxEBNCP16-IL2-FLS-CT-His (SARS-CoV-2, UniProt P0DTC2 16-1213)
pxENB2-His-TEV-FLS-CT [15] = target: T7, pxENB2-His-TEV-FLS-CT; remark: listed apart in the source
[16] = target: pxEBNCP15-mIgGHC-FLS-CT-His (SARS-CoV-2, UniProt P0DTC2 16-1213)
pxAM-FLS-A-TB-His = pxAM-FLS-A-TB-His (SARS-CoV-2, UniProt P0DTC2 15-1213)
[17] = target: pxENBEP18_Spike_Nuc(1-182)_10xHis (SARS-CoV-2)
pxENB14-His-TEV-RBD = pxENB14-His-TEV-RBD (SARS-CoV-2, UniProt P0DTC2 319-541)
pxENB9-FLS-CT-His [18] = target: T2, pxENB9-FLS-CT-His; remark: listed apart in the source
[19] = target: pxENBCP19-FLS-CT-His-StrepTagII (SARS-CoV-2, UniProt P0DTC2 15-1213)
pxENBCP17-FLS-CT-His-SBP = pxENBCP17-FLS-CT-His-SBP (SARS-CoV-2, UniProt P0DTC2 15-1213)
pxENBCP20-FLS-CT-His-TST = pxENBCP20-FLS-CT-His-TST (SARS-CoV-2, UniProt P0DTC2 15-1213)

B1: pxEBN4-ACE2-AAA-His (receptor)
chain: QSTIEEQAKTFLDKFNHEAEDLFYQSSLASWNYNTNITEENVQNMNNAGDKWSAFLKEQSTLAQMYPLQEIQNLTVKLQLQALQQNGSSVLSEDKSKRLNTILNTMSTIYSTGKVCNPDAPAECLLLEPGLNEIMANSLDYNERLWAWESWRSEVGKALRPLYEEYVVLKNEMARANHYEDYGDYWRGDYEVNGVDGYDYSRGQLIEDVEHTFEEIKPLYEHLHAYVRAKLMNAYPSYISPIGCLPAHLLGDMWGRFWTNLYSLTVPFGQKPNIDVTDAMVDQAWDAQRIFKEAEKFFVSVGLPNMTQGFWENSMLTDPGNVQKAVCHPTAWDLGKGDFRILMCTKVTMDDFLTAHHEMGHIQYDMAYAAQPFLLRNGANEGFHEAVGEIMSLSAATPKHLKSIGLLSPDFQEDNETEINFLLKQALTIVGTLPFTYMLEKWRWMVFKGEIPKDQWMKKWWEMKREIVGVVEPVPHDETYCDPASLFHVSNDYSFIRYYTRTLYQFQFQEALCQAAKHEGPLHKCDISNSTEAGQKLFNMLRLGKSEPWTLALENVVGAKNMNVRPLLNYFEPLFTWLKDQNKNSFVGWSTDWSPYADGGGSHHHHHHHH
Kd (commercial RBD protein): 0.2 nM | Kd (pxENB17-RBD-His [1]): 32.6 nM | Kd (pxENB9-FLS-CT-His [2]): < 0.001 nM | Kd (pxENB5-his-TEV-FLS [3]): 16.6 nM | Kd (pxENB8-FLS-TN-His [4]): 6.51 nM | Kd (pxENB12-FLS-His [5]): 3.19 nM | Kd (pxENB1-His-TEV-FLS-TN [6]): 3.9 nM | Kd (pxENB2-His-TEV-FLS-CT [7]): 1.1 nM | Kd [8]: 26.9 nM | Kd (pxEBNCP14-tPa-FLS-CT-His): 0.00613 nM | Kd (pxENB9-FLS-CT-His [9]): < 0.001 nM | Kd (pxENB5-his-TEV-FLS [10]): 19.5 nM | Kd (pxENB8-FLS-TN-His [11]): 12.4 nM | Kd (pxEBNCP2-tPa-His-TEV-S1): 34.2 nM | Kd (pxEBNCP3-S1-His): 39.6 nM | Kd (pxENB12-FLS-His [12]): 13.1 nM | Kd (pxENB17-RBD-His [13]): 0.242 nM | Kd (pxEBNCP4-tPa-S1-His): 45 nM | Kd (pxEBNCP1-His-TEV-S1): 22.8 nM | Kd (pxENB1-His-TEV-FLS-TN [14]): 69.2 nM | Kd (pxEBNCP16-IL2-FLS-CT-His): 1.46 nM | Kd (pxENB2-His-TEV-FLS-CT [15]): 0.45 nM | Kd [16]: < 0.001 nM | Kd (pxAM-FLS-A-TB-His): 0.00709 nM | Kd [17]: 21.6 nM | Kd (pxENB14-His-TEV-RBD): 0.156 nM | Kd (pxENB9-FLS-CT-His [18]): 36.6 nM | Kd [19]: 90.8 nM | Kd (pxENBCP17-FLS-CT-His-SBP): 51.5 nM | Kd (pxENBCP20-FLS-CT-His-TST): 51.6 nM
